The values below come from the supplement of paper PMC10598134.

± gives the standard deviation.

The data set in a line: collision cross section of unmodified peptide (TIMS, N2, iRT-aligned); higher = larger / more extended gas-phase ion. The essentials:
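Values are averages of 1–3 technical replicates of the most abundant feature for each charge state. Collision cross section was obtained from the Mason-Schamp equation after 1/K0 calibration with three reference ions and run-wise alignment to the median iRT peptide deviation. Synthetic peptide pools (iRT standard spiked 1:40) were separated on a 120-min nanoflow C18 gradient at 60 °C, analysed on a timsTOF Pro/HT (dda-PASEF, nitrogen, ~2.4 mbar) and identified with MaxQuant.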

LEQVEKELLR registered a collision cross section (charge state: 2) of 383.51 ± 1.5 Å² and a collision cross section (charge state: 3) of 455.22 ± 4.1 Å².

Turning to GRGAPPPPPSR, the collision cross section is 341.09 ± 1.1 Å² (charge state: 2) and 436.88 ± 3.2 Å² (charge state: 3).

In the case of PGPRGQR, the collision cross section (charge state: 2) is recorded as 296.23 ± 0.53 Å².

AQSYAQQLGR registered a collision cross section (charge state: 2) of 352.59 ± 0.74 Å².

For the setting “charge state: 3”, VTRYPILGIPQAHR had a collision cross section of 523.45 ± 1.1 Å².

As to AAHGRGALAEAAR, the collision cross section by setting is: (charge state: 2) 390.08 ± 0.35 Å²; (charge state: 3) 476.13 ± 1.3 Å².

Consider DNNNSNNRGSYNR, for which the collision cross section (charge state: 3) is listed as 461.19 ± 2.6 Å².

With IGNSYFKEEK, the collision cross section (charge state: 2) is 377.24 ± 0.91 Å² and the collision cross section (charge state: 3) amounted to 453.77 ± 3.2 Å².

For SITHSTVGSKGEK, the collision cross section runs as follows: (charge state: 2) 404.31 ± 1.8 Å²; (charge state: 3) 464.75 ± 3.9 Å².

LELAQYR: under “charge state: 2”, the collision cross section turned out to be 324.63 ± 0.15 Å².

Turning to ASTPGAAAQIQEVK, the collision cross section (charge state: 2) was found to be 395.93 ± 0.14 Å².

Take LSEHATAPTR: the collision cross section by setting is: (charge state: 2) 353.05 ± 0.78 Å²; (charge state: 3) 452.29 ± 0.22 Å².

In the case of EVVKPVPITSPAVSK, the collision cross section is given as 412.92 ± 0.57 Å² (charge state: 2) and 534.95 ± 0.86 Å² (charge state: 3).

Take EPFSGDHSADGFEVTSR: where the note is “charge state: 3”, the collision cross section is reported as 491.61 ± 0.86 Å².
